# Source: US20240124553A1
# Assays:
# Assay in all cases: flow cytometry, transfected 293T cells
# [1] = target: CHIKV E2-E1 envelope glycoproteins (strain S27), E2 mutant L46A (chikungunya virus strain S27) (UniProt Q8JUX5)
# [2] = target: CHIKV E2-E1 envelope glycoproteins (strain S27), E2 mutant V113A (chikungunya virus strain S27) (UniProt Q8JUX5)
# [3] = target: CHIKV E2-E1 envelope glycoproteins (strain S27), E2 mutant R119A (chikungunya virus strain S27) (UniProt Q8JUX5)
# [4] = target: CHIKV E2-6K-E1 envelope proteins (strain S27) with E2 C201A (Chikungunya virus strain S27) (UniProt Q8JUX5)
# [5] = target: CHIKV E2-6K-E1 envelope proteins (strain S27) with E2 V188A (Chikungunya virus strain S27) (UniProt Q8JUX5)
# [6] = target: CHIKV E2-6K-E1 envelope proteins (strain S27) with E2 R198A (Chikungunya virus strain S27) (UniProt Q8JUX5)
# [7] = target: CHIKV E2-6K-E1 envelope proteins (strain S27) with E2 S185A (Chikungunya virus strain S27) (UniProt Q8JUX5)
# [8] = target: CHIKV E2-6K-E1 envelope proteins (strain S27) with E2 V216A (Chikungunya virus strain S27) (UniProt Q8JUX5)
# [9] = target: CHIKV E2-6K-E1 envelope proteins (strain S27) with E2 S206A (Chikungunya virus strain S27) (UniProt Q8JUX5)
# [10] = target: CHIKV E2-6K-E1 envelope proteins (strain S27) with E2 G186A (Chikungunya virus strain S27) (UniProt Q8JUX5)
# [11] = target: CHIKV E2-6K-E1 envelope proteins (strain S27) with E2 T196A (Chikungunya virus strain S27) (UniProt Q8JUX5)
# [12] = target: CHIKV E2-6K-E1 envelope proteins (strain S27) with E2 K189A (Chikungunya virus strain S27) (UniProt Q8JUX5)
# [13] = target: CHIKV E2-6K-E1 envelope proteins (strain S27) with E2 T191A (Chikungunya virus strain S27) (UniProt Q8JUX5)
# [14] = target: CHIKV E2-6K-E1 envelope proteins (strain S27) with E2 G204A (Chikungunya virus strain S27) (UniProt Q8JUX5)
# [15] = target: CHIKV E2-6K-E1 envelope proteins (strain S27) with E2 L181A (Chikungunya virus strain S27) (UniProt Q8JUX5)
# [16] = target: CHIKV E2-6K-E1 envelope proteins (strain S27) with E2 N193A (Chikungunya virus strain S27) (UniProt Q8JUX5)
# [17] = target: CHIKV E2-6K-E1 envelope proteins (strain S27) with E2 Q183A (Chikungunya virus strain S27) (UniProt Q8JUX5)
# [18] = target: CHIKV E2-6K-E1 envelope proteins (strain S27) with E2 V192A (Chikungunya virus strain S27) (UniProt Q8JUX5)
# [19] = target: CHIKV E2-6K-E1 envelope proteins (strain S27) with E2 L210A (Chikungunya virus strain S27) (UniProt Q8JUX5)
# [20] = target: CHIKV E2-6K-E1 envelope proteins (strain S27) with E2 N187A (Chikungunya virus strain S27) (UniProt Q8JUX5)
# [21] = target: CHIKV E2-6K-E1 envelope proteins (strain S27) with E2 S182A (Chikungunya virus strain S27) (UniProt Q8JUX5)
# [22] = target: CHIKV E2-6K-E1 envelope proteins (strain S27) with E2 C220A (Chikungunya virus strain S27) (UniProt Q8JUX5)
# [23] = target: CHIKV E2-6K-E1 envelope proteins (strain S27) with E2 N219A (Chikungunya virus strain S27) (UniProt Q8JUX5)
# [24] = target: CHIKV E2-6K-E1 envelope proteins (strain S27) with E2 I211A (Chikungunya virus strain S27) (UniProt Q8JUX5)
# [25] = target: CHIKV E2-6K-E1 envelope proteins (strain S27) with E2 L180A (Chikungunya virus strain S27) (UniProt Q8JUX5)
# [26] = target: CHIKV E2-6K-E1 envelope proteins (strain S27) with E2 Y199A (Chikungunya virus strain S27) (UniProt Q8JUX5)
# [27] = target: CHIKV E2-6K-E1 envelope proteins (strain S27) with E2 C203A (Chikungunya virus strain S27) (UniProt Q8JUX5)
# [28] = target: CHIKV E2-6K-E1 envelope proteins (strain S27) with E2 S194A (Chikungunya virus strain S27) (UniProt Q8JUX5)
# [29] = target: CHIKV E2-6K-E1 envelope proteins (strain S27) with E2 N202A (Chikungunya virus strain S27) (UniProt Q8JUX5)
# [30] = target: CHIKV E2-6K-E1 envelope proteins (strain S27) with E2 K200A (Chikungunya virus strain S27) (UniProt Q8JUX5)
# [31] = target: CHIKV E2-6K-E1 envelope proteins (strain S27) with E2 G209A (Chikungunya virus strain S27) (UniProt Q8JUX5)
# [32] = target: CHIKV E2-6K-E1 envelope proteins (strain S27) with E2 K215A (Chikungunya virus strain S27) (UniProt Q8JUX5)
substance,measurement,setting,value
CHIKV mAb C9 (antibody),Binding Reactivity (% WT),[1],1.7 % WT
same,Binding Reactivity (% WT),[2],81.8 % WT
same,Binding Reactivity (% WT),[3],88 % WT
CHIKV mAb CHKV-88 (antibody),Binding Reactivity (% WT),[1],23.6 % WT
same,Binding Reactivity (% WT),[2],112 % WT
same,Binding Reactivity (% WT),[3],99.5 % WT
CHIKV mAb IM-CKV063 (antibody),Binding Reactivity (% WT),[1],2.7 % WT
same,Binding Reactivity (% WT),[2],79.8 % WT
same,Binding Reactivity (% WT),[3],72 % WT
CHIKV mAb IM-CKV065 (antibody),Binding Reactivity (% WT),[1],-2.7 % WT
same,Binding Reactivity (% WT),[2],70.4 % WT
same,Binding Reactivity (% WT),[3],120 % WT
Mxra8-Fc (mouse Mxra8 extracellular domain fused to mouse IgG2b Fc) (Fc fusion),Binding Reactivity (% WT),[4],9.6 % WT
same,Binding Reactivity (% WT),[5],55.2 % WT
same,Binding Reactivity (% WT),[6],74 % WT
same,Binding Reactivity (% WT),[7],88.1 % WT
same,Binding Reactivity (% WT),[8],82.9 % WT
same,Binding Reactivity (% WT),[9],52.2 % WT
same,Binding Reactivity (% WT),[10],108 % WT
same,Binding Reactivity (% WT),[1],4.8 % WT
same,Binding Reactivity (% WT),[11],86.6 % WT
same,Binding Reactivity (% WT),[12],156 % WT
same,Binding Reactivity (% WT),[13],87.4 % WT
same,Binding Reactivity (% WT),[14],76.7 % WT
same,Binding Reactivity (% WT),[15],53.2 % WT
same,Binding Reactivity (% WT),[16],120 % WT
same,Binding Reactivity (% WT),[17],96.1 % WT
same,Binding Reactivity (% WT),[18],56.9 % WT
same,Binding Reactivity (% WT),[19],70.1 % WT
same,Binding Reactivity (% WT),[20],90.5 % WT
same,Binding Reactivity (% WT),[2],78 % WT
same,Binding Reactivity (% WT),[21],70.9 % WT
same,Binding Reactivity (% WT),[22],60.2 % WT
same,Binding Reactivity (% WT),[23],66.6 % WT
same,Binding Reactivity (% WT),[24],81.1 % WT
same,Binding Reactivity (% WT),[25],57 % WT
same,Binding Reactivity (% WT),[26],15.9 % WT
same,Binding Reactivity (% WT),[27],10.4 % WT
same,Binding Reactivity (% WT),[28],87 % WT
same,Binding Reactivity (% WT),[3],0 % WT
same,Binding Reactivity (% WT),[29],80.6 % WT
same,Binding Reactivity (% WT),[30],75.5 % WT
same,Binding Reactivity (% WT),[31],77.9 % WT
same,Binding Reactivity (% WT),[32],106 % WT
